Among the data in patent US20230105982A1, “INSULIN-INCRETIN CONJUGATES” (Merck Sharp & Dohme Corp., priority 2021, published 2023) are Insulin Receptor pAK Assay EC50 values, retold here.

The target of test [1] is human insulin receptor (pAkt assay, CHO cells overexpressing human IR) (human) (UniProt P06213). The experiment in a line: cell-based or functional assay.
The target of test [2] is minipig insulin receptor (minipig). The experiment in a line: cell-based or functional assay.

Take Insulin levemir (ligand): the Insulin Receptor pAK Assay EC50 in test [1] amounted to 0.51 nM; in test [2] it was 0.5 nM.
